What was measured:
Assay in all cases: holdup assay
Parameters in all cases: key: below the threshold = too weak to quantify, mostly under pKd 3.1 to 4
ARHGAP21, Q5T5U3 = molecular target: T1, ARHGAP21, Q5T5U3
T1 sequence (Q5T5U3 45-169, limits assumed, looked up): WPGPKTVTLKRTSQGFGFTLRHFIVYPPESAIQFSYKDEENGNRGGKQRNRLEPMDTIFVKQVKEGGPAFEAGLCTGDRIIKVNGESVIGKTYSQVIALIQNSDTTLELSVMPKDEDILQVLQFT

DFNB31_1, Q9P202 = molecular target: T2, DFNB31_1, Q9P202
T2 sequence (Q9P202 135-233, limits assumed, looked up): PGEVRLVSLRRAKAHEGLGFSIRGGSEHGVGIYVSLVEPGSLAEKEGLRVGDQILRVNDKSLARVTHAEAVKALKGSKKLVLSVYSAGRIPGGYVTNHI

DLG3_1, Q92796 = molecular target: T3, DLG3_1, Q92796
T3 sequence (Q92796 125-227, limits assumed, looked up): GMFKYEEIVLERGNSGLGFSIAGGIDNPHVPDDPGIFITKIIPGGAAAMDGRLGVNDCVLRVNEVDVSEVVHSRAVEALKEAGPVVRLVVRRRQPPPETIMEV

DLG3_3, Q92796 = molecular target: T4, DLG3_3, Q92796
T4 sequence (Q92796 374-475, limits assumed, looked up): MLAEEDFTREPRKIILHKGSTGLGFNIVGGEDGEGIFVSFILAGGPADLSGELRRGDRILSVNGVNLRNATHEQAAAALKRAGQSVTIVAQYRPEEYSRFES

DLG4_1, P78352 = molecular target: DLG4_1, P78352
FRMPD2_1, Q68DX3 = molecular target: FRMPD2_1, Q68DX3
GORASP2, Q9H8Y8 = molecular target: GORASP2, Q9H8Y8
GRID2IP_1, A4D2P6 = molecular target: GRID2IP_1, A4D2P6
GRID2IP_2, A4D2P6 = molecular target: GRID2IP_2, A4D2P6
GRIP1_2, Q9Y3R0 = molecular target: T5, GRIP1_2, Q9Y3R0
T5 sequence (Q9Y3R0 145-248, limits assumed, looked up): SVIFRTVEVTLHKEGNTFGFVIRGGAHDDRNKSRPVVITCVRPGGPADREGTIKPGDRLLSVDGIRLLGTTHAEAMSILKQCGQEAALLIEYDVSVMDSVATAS

GRIP1_5, Q9Y3R0 = molecular target: T6, GRIP1_5, Q9Y3R0
T6 sequence (Q9Y3R0 568-668, limits assumed, looked up): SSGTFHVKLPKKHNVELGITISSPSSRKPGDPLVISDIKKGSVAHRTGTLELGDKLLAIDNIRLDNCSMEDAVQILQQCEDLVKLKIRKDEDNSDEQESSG

GRIP1_7, Q9Y3R0 = molecular target: T7, GRIP1_7, Q9Y3R0
T7 sequence (Q9Y3R0 999-1096, limits assumed, looked up): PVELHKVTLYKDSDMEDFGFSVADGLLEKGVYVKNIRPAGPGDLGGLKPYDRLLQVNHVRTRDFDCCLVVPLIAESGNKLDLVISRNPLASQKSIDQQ

HTRA1, Q92743 = molecular target: HTRA1, Q92743
IL16_3, Q14005 = molecular target: IL16_3, Q14005
Inadl_5, Q8NI35 = molecular target: Inadl_5, Q8NI35
LDB3, O75112 = molecular target: LDB3, O75112
LIMK2, P53671 = molecular target: LIMK2, P53671
LNX2_3, Q8N448 = molecular target: T8, LNX2_3, Q8N448
T8 sequence (Q8N448 463-564, limits assumed, looked up): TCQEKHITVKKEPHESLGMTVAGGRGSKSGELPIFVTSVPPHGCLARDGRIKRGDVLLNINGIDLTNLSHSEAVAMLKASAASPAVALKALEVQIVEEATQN

MPDZ_12, O75970 = molecular target: T9, MPDZ_12, O75970
T9 sequence (O75970 1857-1958, limits assumed, looked up): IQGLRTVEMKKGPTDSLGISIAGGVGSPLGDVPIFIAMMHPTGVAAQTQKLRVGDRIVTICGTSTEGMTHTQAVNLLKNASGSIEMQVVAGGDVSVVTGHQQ

NHERF4_1, Q86UT5-2 = molecular target: NHERF4_1, Q86UT5-2
PARD3B_1, Q8TEW8 = molecular target: T10, PARD3B_1, Q8TEW8
T10 sequence (Q8TEW8 196-299, limits assumed, looked up): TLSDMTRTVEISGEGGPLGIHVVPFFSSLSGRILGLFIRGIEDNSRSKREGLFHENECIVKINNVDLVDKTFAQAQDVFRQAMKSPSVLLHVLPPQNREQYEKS

PTPN3, P26045 = molecular target: PTPN3, P26045
RHPN1, Q8TCX5 = molecular target: T11, RHPN1, Q8TCX5
T11 sequence (Q8TCX5 508-602, limits assumed, looked up): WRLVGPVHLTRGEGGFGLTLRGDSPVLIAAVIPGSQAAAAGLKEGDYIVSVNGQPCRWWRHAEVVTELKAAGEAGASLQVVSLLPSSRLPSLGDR

SNX27, Q96L92 = molecular target: SNX27, Q96L92
TJP3_3, O95049 = molecular target: T12, TJP3_3, O95049
T12 sequence (O95049 375-456, limits assumed, looked up): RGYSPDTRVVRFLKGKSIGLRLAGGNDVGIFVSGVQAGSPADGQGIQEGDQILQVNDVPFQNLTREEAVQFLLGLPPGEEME

[1] = plain residues with an end cap or a label only (N-terminal biotin on a linker: ahx)
[2] = plain residues with an end cap or a label only (N-terminal biotin on a linker: ado-ado, ttds)
[3] = plain residues with an end cap or a label only (N-terminal biotin on a linker: ttds)
[4] = plain residues with an end cap or a label only (N-terminal biotin on a linker: ado-ado)

Measured: pKd

LDB3, O75112, sequence (O75112 1-94): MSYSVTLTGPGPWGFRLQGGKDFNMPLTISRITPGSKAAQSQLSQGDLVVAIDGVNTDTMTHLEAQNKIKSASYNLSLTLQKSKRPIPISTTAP
GRID2IP_1, A4D2P6, sequence (A4D2P6 1-87): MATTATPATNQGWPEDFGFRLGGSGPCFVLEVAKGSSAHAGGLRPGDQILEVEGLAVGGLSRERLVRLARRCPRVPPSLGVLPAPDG
LIMK2, P53671, sequence (P53671 143-248): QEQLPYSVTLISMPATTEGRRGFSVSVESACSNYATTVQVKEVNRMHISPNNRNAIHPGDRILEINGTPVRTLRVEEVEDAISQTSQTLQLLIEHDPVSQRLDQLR
NHERF4_1, Q86UT5-2, sequence (Q86UT5 other isoform, or with tags, fused parts or gaps): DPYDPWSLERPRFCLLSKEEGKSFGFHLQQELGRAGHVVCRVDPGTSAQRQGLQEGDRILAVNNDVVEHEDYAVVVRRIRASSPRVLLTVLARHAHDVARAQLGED
Inadl_5, Q8NI35, sequence (Q8NI35 673-780): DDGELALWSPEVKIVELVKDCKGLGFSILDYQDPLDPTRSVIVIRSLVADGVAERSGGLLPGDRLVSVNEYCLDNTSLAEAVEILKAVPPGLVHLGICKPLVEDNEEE
FRMPD2_1, Q68DX3, sequence (Q68DX3 770-861): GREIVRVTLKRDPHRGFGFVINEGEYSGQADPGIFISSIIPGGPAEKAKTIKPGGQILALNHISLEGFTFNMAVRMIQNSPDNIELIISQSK
DLG4_1, P78352, sequence (P78352 62-152): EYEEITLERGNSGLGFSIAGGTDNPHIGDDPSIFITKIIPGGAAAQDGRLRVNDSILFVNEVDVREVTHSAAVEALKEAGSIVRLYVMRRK
IL16_3, Q14005, sequence (Q14005 1107-1207): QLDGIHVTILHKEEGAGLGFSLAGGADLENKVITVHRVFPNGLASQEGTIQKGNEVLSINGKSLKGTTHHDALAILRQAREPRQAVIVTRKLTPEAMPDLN
HTRA1, Q92743, sequence (Q92743 360-477): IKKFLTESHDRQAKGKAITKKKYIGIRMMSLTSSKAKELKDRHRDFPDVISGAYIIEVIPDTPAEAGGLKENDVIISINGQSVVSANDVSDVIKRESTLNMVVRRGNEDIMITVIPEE
GRID2IP_2, A4D2P6, sequence (A4D2P6 272-370): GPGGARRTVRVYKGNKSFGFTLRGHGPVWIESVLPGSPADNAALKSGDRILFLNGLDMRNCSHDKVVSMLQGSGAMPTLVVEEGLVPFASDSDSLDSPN
PTPN3, P26045, sequence (P26045 505-587): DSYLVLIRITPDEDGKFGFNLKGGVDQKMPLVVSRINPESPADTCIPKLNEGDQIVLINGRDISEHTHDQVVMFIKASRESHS

SKKNELFSNL [NHERF1, O14745]
below the threshold: ARHGAP21, Q5T5U3; [1] | DFNB31_1, Q9P202; [1] | DLG3_1, Q92796; [1] | DLG3_3, Q92796; [1] | DLG4_1, P78352; [1] | FRMPD2_1, Q68DX3; [1] | GORASP2, Q9H8Y8; [1] | GRID2IP_1, A4D2P6; [1] | GRID2IP_2, A4D2P6; [1] | GRIP1_2, Q9Y3R0; [1] | GRIP1_5, Q9Y3R0; [1] | GRIP1_7, Q9Y3R0; [1] | HTRA1, Q92743; [1] | IL16_3, Q14005; [1] | Inadl_5, Q8NI35; [1] | LDB3, O75112; [1] | LIMK2, P53671; [1] | LNX2_3, Q8N448; [1] | MPDZ_12, O75970; [1] | NHERF4_1, Q86UT5-2; [1] | PARD3B_1, Q8TEW8; [1] | PTPN3, P26045; [1] | SNX27, Q96L92; [1] | TJP3_3, O95049; [1]
3.76: RHPN1, Q8TCX5; [1]

SNAKAVETDV [KCNA4, P22459]
4.25: DLG3_1, Q92796; [2]
below the threshold: ARHGAP21, Q5T5U3; [2] | DFNB31_1, Q9P202; [2] | DLG3_3, Q92796; [2] | FRMPD2_1, Q68DX3; [2] | GORASP2, Q9H8Y8; [2] | GRID2IP_1, A4D2P6; [2] | GRID2IP_2, A4D2P6; [2] | GRIP1_2, Q9Y3R0; [2] | GRIP1_5, Q9Y3R0; [2] | GRIP1_7, Q9Y3R0; [2] | HTRA1, Q92743; [2] | IL16_3, Q14005; [2] | Inadl_5, Q8NI35; [2] | LDB3, O75112; [2] | LIMK2, P53671; [2] | LNX2_3, Q8N448; [2] | MPDZ_12, O75970; [2] | NHERF4_1, Q86UT5-2; [2] | PARD3B_1, Q8TEW8; [2] | SNX27, Q96L92; [2] | TJP3_3, O95049; [2]
4.15: RHPN1, Q8TCX5; [2]
4.53: PTPN3, P26045; [2]
4.67: DLG4_1, P78352; [2]

PPRQRSETQV [HPV82-E6, Q9IR59]
3.31: Inadl_5, Q8NI35; [3]
4.65: DLG4_1, P78352; [3]
4.12: DLG3_1, Q92796; [3] | GORASP2, Q9H8Y8; [3]
4.31: PTPN3, P26045; [3]
4.63: DLG3_3, Q92796; [3]
3.5: FRMPD2_1, Q68DX3; [3]
below the threshold: ARHGAP21, Q5T5U3; [3] | DFNB31_1, Q9P202; [3] | GRID2IP_1, A4D2P6; [3] | GRID2IP_2, A4D2P6; [3] | GRIP1_2, Q9Y3R0; [3] | GRIP1_5, Q9Y3R0; [3] | GRIP1_7, Q9Y3R0; [3] | HTRA1, Q92743; [3] | IL16_3, Q14005; [3] | LDB3, O75112; [3] | LIMK2, P53671; [3] | LNX2_3, Q8N448; [3] | MPDZ_12, O75970; [3] | NHERF4_1, Q86UT5-2; [3] | PARD3B_1, Q8TEW8; [3] | TJP3_3, O95049; [3]
3.72: RHPN1, Q8TCX5; [3]
4.67: SNX27, Q96L92; [3]

SSIDLWETAL [SLC15A5, A6NIM6]
3.92: LDB3, O75112; [3]
5: RHPN1, Q8TCX5; [3]
3.87: DLG3_1, Q92796; [3]
4.49: PARD3B_1, Q8TEW8; [3]
3.8: DLG3_3, Q92796; [3]
4.25: HTRA1, Q92743; [3]
below the threshold: FRMPD2_1, Q68DX3; [3] | GORASP2, Q9H8Y8; [3] | GRID2IP_1, A4D2P6; [3] | GRIP1_2, Q9Y3R0; [3] | GRIP1_5, Q9Y3R0; [3] | GRIP1_7, Q9Y3R0; [3] | IL16_3, Q14005; [3] | Inadl_5, Q8NI35; [3] | LIMK2, P53671; [3] | LNX2_3, Q8N448; [3] | MPDZ_12, O75970; [3] | TJP3_3, O95049; [3]
4.55: ARHGAP21, Q5T5U3; [3]
4.29: DLG4_1, P78352; [3]
4.71: NHERF4_1, Q86UT5-2; [3]
4.97: DFNB31_1, Q9P202; [3]
5.4: PTPN3, P26045; [3]
4.54: GRID2IP_2, A4D2P6; [3]
5.92: SNX27, Q96L92; [3]

ELKAEDEVQI [DCHS2, Q6V1P9]
3.89: PARD3B_1, Q8TEW8; [4]
below the threshold: DFNB31_1, Q9P202; [4] | DLG3_1, Q92796; [4] | DLG3_3, Q92796; [4] | DLG4_1, P78352; [4] | FRMPD2_1, Q68DX3; [4] | GORASP2, Q9H8Y8; [4] | GRID2IP_1, A4D2P6; [4] | GRID2IP_2, A4D2P6; [4] | GRIP1_2, Q9Y3R0; [4] | GRIP1_5, Q9Y3R0; [4] | GRIP1_7, Q9Y3R0; [4] | IL16_3, Q14005; [4] | Inadl_5, Q8NI35; [4] | LDB3, O75112; [4] | LIMK2, P53671; [4] | LNX2_3, Q8N448; [4] | MPDZ_12, O75970; [4] | NHERF4_1, Q86UT5-2; [4] | PTPN3, P26045; [4] | RHPN1, Q8TCX5; [4] | SNX27, Q96L92; [4] | TJP3_3, O95049; [4]
4.25: HTRA1, Q92743; [4]
3.92: ARHGAP21, Q5T5U3; [4]
